Paper PMC9482650, “Quantitative fragmentomics allow affinity mapping of interactomes” (Nature Communications, 2022)

Tests used:
Experiment in all cases: holdup assay
Parameters in all cases: key: below the threshold = too weak to quantify, mostly under pKd 3.1 to 4
CASK, O14936 = molecular target: CASK, O14936
APBA2_1, Q99767 = molecular target: T1, APBA2_1, Q99767
T1 sequence (Q99767 563-664, limits assumed, looked up): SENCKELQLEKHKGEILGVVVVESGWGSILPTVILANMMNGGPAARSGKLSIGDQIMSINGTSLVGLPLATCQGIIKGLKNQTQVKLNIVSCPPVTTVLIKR

FRMPD2_3, Q68DX3 = molecular target: FRMPD2_3, Q68DX3
Inadl_5, Q8NI35 = molecular target: Inadl_5, Q8NI35
Inadl_1, Q8NI35 = molecular target: Inadl_1, Q8NI35
FRMPD2_2, Q68DX3 = molecular target: FRMPD2_2, Q68DX3
NOS1, P29475 = molecular target: NOS1, P29475
LIN7C, Q9NUP9 = molecular target: T2, LIN7C, Q9NUP9
T2 sequence (Q9NUP9 88-185, limits assumed, looked up): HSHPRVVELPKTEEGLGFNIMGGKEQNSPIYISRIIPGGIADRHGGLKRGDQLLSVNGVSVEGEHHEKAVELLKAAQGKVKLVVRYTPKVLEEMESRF

SNTB1, Q13884 = molecular target: T3, SNTB1, Q13884
T3 sequence (Q13884 107-205, limits assumed, looked up): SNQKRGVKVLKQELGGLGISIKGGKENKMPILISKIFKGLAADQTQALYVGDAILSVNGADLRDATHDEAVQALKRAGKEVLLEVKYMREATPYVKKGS

APBA1_2, Q02410 = molecular target: T4, APBA1_2, Q02410
T4 sequence (Q02410 742-832, limits assumed, looked up): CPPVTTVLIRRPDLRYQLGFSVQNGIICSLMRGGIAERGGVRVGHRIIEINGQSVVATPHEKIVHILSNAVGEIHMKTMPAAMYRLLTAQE

MPDZ_5, O75970 = molecular target: T5, MPDZ_5, O75970
T5 sequence (O75970 695-796, limits assumed, looked up): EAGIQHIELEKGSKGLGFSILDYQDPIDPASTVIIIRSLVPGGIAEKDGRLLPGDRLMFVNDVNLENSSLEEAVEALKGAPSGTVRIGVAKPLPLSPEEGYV

LNX1_3, Q8TBB1 = molecular target: LNX1_3, Q8TBB1
DLG3_3, Q92796 = molecular target: T6, DLG3_3, Q92796
T6 sequence (Q92796 374-475, limits assumed, looked up): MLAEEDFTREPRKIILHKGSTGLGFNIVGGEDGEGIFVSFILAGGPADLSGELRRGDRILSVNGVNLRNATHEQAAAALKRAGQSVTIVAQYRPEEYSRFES

LAP2, Q96RT1 = molecular target: LAP2, Q96RT1
FRMPD2_1, Q68DX3 = molecular target: FRMPD2_1, Q68DX3
GORASP1, Q9BQQ3 = molecular target: GORASP1, Q9BQQ3
DLG1_3, Q12959 = molecular target: DLG1_3, Q12959
DLG4_3, P78352 = molecular target: DLG4_3, P78352
FRMPD1, Q5SYB0 = molecular target: T7, FRMPD1, Q5SYB0
T7 sequence (Q5SYB0 52-145, limits assumed, looked up): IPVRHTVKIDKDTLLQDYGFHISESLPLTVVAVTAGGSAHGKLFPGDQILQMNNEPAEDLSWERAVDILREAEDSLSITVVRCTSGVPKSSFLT

DVL3, Q92997 = molecular target: T8, DVL3, Q92997
T8 sequence (Q92997 244-331, limits assumed, looked up): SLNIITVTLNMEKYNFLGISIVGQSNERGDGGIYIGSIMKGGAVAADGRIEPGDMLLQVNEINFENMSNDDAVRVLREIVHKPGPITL

MAGI2_6, Q86UL8 = molecular target: MAGI2_6, Q86UL8
GRIP1_7, Q9Y3R0 = molecular target: T9, GRIP1_7, Q9Y3R0
T9 sequence (Q9Y3R0 999-1096, limits assumed, looked up): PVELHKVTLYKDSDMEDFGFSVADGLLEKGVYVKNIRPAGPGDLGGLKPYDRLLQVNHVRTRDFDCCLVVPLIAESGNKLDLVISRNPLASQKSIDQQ

PDZD7_3, Q9H5P4 = molecular target: T10, PDZD7_3, Q9H5P4
T10 sequence (Q9H5P4 857-944, limits assumed, looked up): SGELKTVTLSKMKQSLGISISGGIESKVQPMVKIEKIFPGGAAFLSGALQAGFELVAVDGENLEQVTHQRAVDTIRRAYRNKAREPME

GOPC, Q9HD26 = molecular target: GOPC, Q9HD26
SHANK1, Q9Y566 = molecular target: T11, SHANK1, Q9Y566
T11 sequence (Q9Y566 658-767, limits assumed, looked up): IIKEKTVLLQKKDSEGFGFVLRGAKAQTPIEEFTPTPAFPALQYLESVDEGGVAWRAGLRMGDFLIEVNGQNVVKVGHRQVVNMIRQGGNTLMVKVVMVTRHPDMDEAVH

SCRIB_2, Q14160 = molecular target: SCRIB_2, Q14160
MAGI2_4, Q86UL8 = molecular target: MAGI2_4, Q86UL8
[1] = plain residues with an end cap or a label only (N-terminal biotin on a linker: ttds)
[2] = plain residues with an end cap or a label only (N-terminal biotin on a linker: ado-ado)

FRMPD2_3, Q68DX3, sequence (Q68DX3 1073-1166): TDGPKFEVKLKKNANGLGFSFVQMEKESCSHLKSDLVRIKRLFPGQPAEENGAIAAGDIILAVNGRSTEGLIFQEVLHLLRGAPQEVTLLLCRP
Inadl_5, Q8NI35, sequence (Q8NI35 673-780): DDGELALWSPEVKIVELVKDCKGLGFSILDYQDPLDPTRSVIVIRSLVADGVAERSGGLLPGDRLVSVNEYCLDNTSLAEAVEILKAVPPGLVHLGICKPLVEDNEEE
Inadl_1, Q8NI35, sequence (Q8NI35 113-229): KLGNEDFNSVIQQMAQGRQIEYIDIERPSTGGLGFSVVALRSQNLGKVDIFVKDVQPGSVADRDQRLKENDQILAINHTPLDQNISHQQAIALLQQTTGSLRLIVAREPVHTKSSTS
LAP2, Q96RT1, sequence (Q96RT1 other isoform, or with tags, fused parts or gaps): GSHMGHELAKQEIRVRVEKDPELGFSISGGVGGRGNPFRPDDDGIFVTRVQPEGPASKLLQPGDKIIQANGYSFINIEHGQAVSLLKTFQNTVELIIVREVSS
GORASP1, Q9BQQ3, sequence (Q9BQQ3 1-208): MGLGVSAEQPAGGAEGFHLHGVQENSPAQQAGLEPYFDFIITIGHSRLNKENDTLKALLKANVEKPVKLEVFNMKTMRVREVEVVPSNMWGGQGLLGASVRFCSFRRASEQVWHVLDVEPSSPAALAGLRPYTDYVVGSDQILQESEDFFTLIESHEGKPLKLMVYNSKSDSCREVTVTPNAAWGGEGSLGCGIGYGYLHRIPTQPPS
MAGI2_4, Q86UL8, sequence (Q86UL8 772-865): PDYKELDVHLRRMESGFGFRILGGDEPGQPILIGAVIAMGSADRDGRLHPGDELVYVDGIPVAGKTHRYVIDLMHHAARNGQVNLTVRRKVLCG
FRMPD2_2, Q68DX3, sequence (Q68DX3 944-1038): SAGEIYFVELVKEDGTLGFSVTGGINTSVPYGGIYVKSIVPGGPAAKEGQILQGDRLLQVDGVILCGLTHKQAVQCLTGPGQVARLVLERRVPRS
DLG1_3, Q12959, sequence (Q12959 457-571): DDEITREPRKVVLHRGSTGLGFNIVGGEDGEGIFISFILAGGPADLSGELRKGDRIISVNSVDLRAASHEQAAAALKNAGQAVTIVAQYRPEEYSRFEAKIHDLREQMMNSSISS
NOS1, P29475, sequence (P29475 9-101): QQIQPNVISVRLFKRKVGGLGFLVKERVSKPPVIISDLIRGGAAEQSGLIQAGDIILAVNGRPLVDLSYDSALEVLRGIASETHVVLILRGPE
SCRIB_2, Q14160, sequence (Q14160 857-960): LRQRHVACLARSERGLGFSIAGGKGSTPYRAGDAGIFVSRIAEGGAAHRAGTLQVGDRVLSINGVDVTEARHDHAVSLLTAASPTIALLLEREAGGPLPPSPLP
FRMPD2_1, Q68DX3, sequence (Q68DX3 770-861): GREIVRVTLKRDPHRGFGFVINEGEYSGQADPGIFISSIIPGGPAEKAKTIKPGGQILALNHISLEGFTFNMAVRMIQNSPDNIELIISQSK
CASK, O14936, sequence (O14936 487-570): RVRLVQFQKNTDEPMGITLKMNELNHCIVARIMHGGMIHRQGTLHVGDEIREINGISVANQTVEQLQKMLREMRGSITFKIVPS
MAGI2_6, Q86UL8, sequence (Q86UL8 1141-1229): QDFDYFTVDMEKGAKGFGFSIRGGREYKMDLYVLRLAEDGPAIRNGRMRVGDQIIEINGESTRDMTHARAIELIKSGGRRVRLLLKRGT
DLG4_3, P78352, sequence (P78352 306-403): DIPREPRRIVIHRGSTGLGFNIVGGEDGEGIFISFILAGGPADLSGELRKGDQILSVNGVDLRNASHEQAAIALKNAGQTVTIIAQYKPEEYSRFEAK
LNX1_3, Q8TBB1, sequence (Q8TBB1 500-596): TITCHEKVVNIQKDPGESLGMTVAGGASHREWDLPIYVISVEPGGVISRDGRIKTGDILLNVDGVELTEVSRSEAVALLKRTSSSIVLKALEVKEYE

B1: ABRAXAS2, Q15018 (peptide)
chain: DPRNTQTSQI
- pKd (CASK, O14936; [1]): 3.55
- pKd (APBA2_1, Q99767; [1]): below the threshold
- pKd (FRMPD2_3, Q68DX3; [1]): 3.54
- pKd (Inadl_5, Q8NI35; [1]): below the threshold
- pKd (Inadl_1, Q8NI35; [1]): 3.72
- pKd (FRMPD2_2, Q68DX3; [1]): below the threshold
- pKd (NOS1, P29475; [1]): 3.52
- pKd (LIN7C, Q9NUP9; [1]): 3.66
- pKd (SNTB1, Q13884; [1]): 3.96
- pKd (APBA1_2, Q02410; [1]): 3.71
- pKd (MPDZ_5, O75970; [1]): below the threshold
- pKd (LNX1_3, Q8TBB1; [1]): below the threshold
- pKd (DLG3_3, Q92796; [1]): 3.66
- pKd (LAP2, Q96RT1; [1]): 3.53
- pKd (FRMPD2_1, Q68DX3; [1]): below the threshold
- pKd (GORASP1, Q9BQQ3; [1]): 3.56
- pKd (DLG1_3, Q12959; [1]): 3.52
- pKd (DLG4_3, P78352; [1]): below the threshold
- pKd (FRMPD1, Q5SYB0; [1]): below the threshold
- pKd (DVL3, Q92997; [1]): below the threshold
- pKd (MAGI2_6, Q86UL8; [1]): below the threshold
- pKd (GRIP1_7, Q9Y3R0; [1]): below the threshold
- pKd (PDZD7_3, Q9H5P4; [1]): 4.31
- pKd (GOPC, Q9HD26; [1]): 4.13
- pKd (SHANK1, Q9Y566; [1]): below the threshold
- pKd (SCRIB_2, Q14160; [1]): below the threshold
- pKd (MAGI2_4, Q86UL8; [1]): below the threshold

B2: AGMAT, Q9BSE5 (peptide)
chain: LCALPKVTTV
- pKd (CASK, O14936; [1]): below the threshold
- pKd (APBA2_1, Q99767; [1]): below the threshold
- pKd (FRMPD2_3, Q68DX3; [1]): below the threshold
- pKd (Inadl_5, Q8NI35; [1]): below the threshold
- pKd (Inadl_1, Q8NI35; [1]): 3.57
- pKd (FRMPD2_2, Q68DX3; [1]): 3.72
- pKd (NOS1, P29475; [1]): 3.7
- pKd (LIN7C, Q9NUP9; [1]): 4.38
- pKd (SNTB1, Q13884; [1]): 4.73
- pKd (APBA1_2, Q02410; [1]): 3.86
- pKd (MPDZ_5, O75970; [1]): below the threshold
- pKd (LNX1_3, Q8TBB1; [1]): 3.61
- pKd (DLG3_3, Q92796; [1]): 4.47
- pKd (LAP2, Q96RT1; [1]): 3.61
- pKd (FRMPD2_1, Q68DX3; [1]): below the threshold
- pKd (GORASP1, Q9BQQ3; [1]): 4.11
- pKd (DLG1_3, Q12959; [1]): 4.77
- pKd (DLG4_3, P78352; [1]): 4.23
- pKd (FRMPD1, Q5SYB0; [1]): below the threshold
- pKd (DVL3, Q92997; [1]): below the threshold
- pKd (MAGI2_6, Q86UL8; [1]): 4.64
- pKd (GRIP1_7, Q9Y3R0; [1]): below the threshold
- pKd (PDZD7_3, Q9H5P4; [1]): 5.41
- pKd (GOPC, Q9HD26; [1]): 3.78
- pKd (SHANK1, Q9Y566; [1]): below the threshold
- pKd (SCRIB_2, Q14160; [1]): below the threshold
- pKd (MAGI2_4, Q86UL8; [1]): 4.55

B3: SLC23A1, Q9UHI7 (peptide)
chain: TETASVCTKV
- pKd (CASK, O14936; [2]): below the threshold
- pKd (APBA2_1, Q99767; [2]): below the threshold
- pKd (FRMPD2_3, Q68DX3; [2]): below the threshold
- pKd (Inadl_5, Q8NI35; [2]): below the threshold
- pKd (Inadl_1, Q8NI35; [2]): below the threshold
- pKd (FRMPD2_2, Q68DX3; [2]): 3.93
- pKd (NOS1, P29475; [2]): 3.62
- pKd (LIN7C, Q9NUP9; [2]): 4.08
- pKd (SNTB1, Q13884; [2]): 4.17
- pKd (APBA1_2, Q02410; [2]): 4.64
- pKd (MPDZ_5, O75970; [2]): below the threshold
- pKd (LNX1_3, Q8TBB1; [2]): 3.5
- pKd (DLG3_3, Q92796; [2]): below the threshold
- pKd (LAP2, Q96RT1; [2]): 3.74
- pKd (FRMPD2_1, Q68DX3; [2]): 3.76
- pKd (GORASP1, Q9BQQ3; [2]): 3.87
- pKd (DLG1_3, Q12959; [2]): below the threshold
- pKd (DLG4_3, P78352; [2]): below the threshold
- pKd (FRMPD1, Q5SYB0; [2]): below the threshold
- pKd (DVL3, Q92997; [2]): below the threshold
- pKd (MAGI2_6, Q86UL8; [2]): 3.69
- pKd (GRIP1_7, Q9Y3R0; [2]): below the threshold
- pKd (PDZD7_3, Q9H5P4; [2]): 4.63
- pKd (GOPC, Q9HD26; [2]): 4.17
- pKd (SHANK1, Q9Y566; [2]): 4.42
- pKd (SCRIB_2, Q14160; [2]): 3.77
- pKd (MAGI2_4, Q86UL8; [2]): 3.58
